Results: patent publication US11702475B2, “Cysteine engineered fibronectin type III domain binding molecules” (Janssen Biotech, Inc., priority 2013, dated 2023)
Entries after “also recorded” stand apart in the source; their conditions may differ. Like-named read-outs stand apart in the source and are kept apart here.

Key:
[1] = Body weight and tolerability in the H292-HGF xenograft study; conditions: for toxicity / body weight loss / tolerability (in words): doses as in E46
Method: (§2) At the time of routine monitoring, the animals were checked for any effects of tumor growth and treatments on normal behavior, such as mobility, visual estimation of food and water consumption, body weight gain/loss (body weights were measured twice weekly), eye/hair matting and any other abnormal effect.
(§3) Animals for which the body weight loss exceeded 20%, or for which the mean tumor size of the group exceeds 2000 mm^3 were euthanized. The study was terminated after two weeks of observation after the final dose.

[2] = tested on: H292-HGF human lung cancer xenograft; experiment: Efficacy of bispecific molecule and other inhibitors in subcutaneous H292-HGF xenograft model; assay type: in vivo, SCID/Beige mice; conditions: for mean tumor size: ECB38 25 mg/kg; for antitumor activity (in words): doses as in E46
Method: The H292-HGF cells were maintained in vitro in RPMI1640 medium supplemented with fetal bovine serum (10% v/v), and L-glutamine (2 mM) at 37° C. in an atmosphere of 5% CO2 in air. The cells were routinely subcultured twice weekly by trypsin-EDTA treatment. The cells growing in an exponential growth phase were harvested and counted for tumor inoculation.
Each mouse was inoculated subcutaneously at the right flank region with H292-HGF tumor cells (2×10^6) in 0.1 ml of PBS with cultrex (1:1) for tumor development. The treatments were started when the mean tumor size reached 139 mm^3. […] The date of tumor cell inoculation was denoted as day 0.
Before commencement of treatment, all animals were weighed and the tumor volumes were measured. Since the tumor volume can affect the effectiveness of any given treatment, mice were assigned into groups using randomized block design based upon their tumor volumes. […] The randomized block design was used to assign experimental animals to groups. First, the experimental animals were divided into homogeneous blocks according to their initial tumor volume. Secondly, within each block, randomization of experimental animals to treatments was conducted.
The major endpoint was whether tumor growth can be delayed or tumor bearing mice can be cured. Tumor size was measured twice weekly in two dimensions using a caliper, and the volume was expressed in mm^3 using the formula: V=0.5 a×b^2 where a and b are the long and short diameters of the tumor, respectively. The tumor size was then used for calculations of both T−C and T/C values. T−C was calculated with T as the time (in days) required for the mean tumor size of the treatment group to reach 1000 mm^3, and C was the time (in days) for the mean tumor size of the control group to reach the same size. The T/C value (in percent) was an indication of antitumor efficacy; T and C were the mean volume of the treated and control groups, respectively, on a given day. Complete tumor regression (CR) is defined as tumors that are reduced to below the limit of palpation (62.5 mm^3). Partial tumor regression (PR) is defined as tumors that are reduced from initial tumor volume. A minimum duration of CR or PR in 3 or more successive tumor measurements is required for a CP or PR to be considered durable.
Statistical analyses of difference in tumor volume among the groups were evaluated using a one-way ANOVA followed by individual comparisons using Games-Howell (equal variance not assumed). All data were analyzed using SPSS 18.0. p<0.05 was considered to be statistically significant.

H292 cells = experiment: Inhibition of proliferation of H292 cells (HGF-induced); assay type: cell-based, human
Source text: Inhibition of tumor cell proliferation can be measured using standard methods and methods described herein.
It was verified that the enhanced potency for inhibition of EGFR and c-Met phosphorylation with the bispecific EGFR/c-Met molecules translated into an enhanced inhibition of signaling and proliferation. […] The proliferation assay was completed using different combinations EGFR and c-Met binding FN3 domains either as a mixture or linked in a bispecific format. […] This confirmed that the avidity effect observed at the level of the receptors (FIG. 6 and FIG. 7) translates into an improvement in inhibiting cell signaling (Table 17) and cell proliferation (Table 18).
Select EGFR/c-Met molecules were characterized for their affinity to both EGFR and c-Met, their ability to inhibit EGFR and c-Met autophosphorylation, and their effect on proliferation of HGF cells. Binding affinity of the bispecific EGFR/c-Met molecules to recombinant EGFR and/or c-Met extracellular domain was further by surface Plasmon resonance methods using a Proteon Instrument (BioRad) according to protocol described in Example 3.

[3] = tested on: H292-HGF tumor xenografts; experiment: Tumor efficacy study with bispecific EGFR/c-Met molecules of variable affinity; assay type: in vivo, SCID Beige mice; conditions: 25 mg/kg three times per week
Method: One week after implantation, mice were stratified into groups with equivalent tumor volumes (mean tumor volume=77.9+/−1.7 mm^3). Mice were dosed three times per week with the bispecific molecules and tumor volumes were recorded twice weekly.

[4] = mouse, in vivo, ip
Method: SCID Beige mice were subcutaneously inoculated with NCI-H292 cells expressing human HGF (2.0×10^6 cells in Cultrex (Trevigen) in a volume of 200 μL) on the dorsal flank of each animal. Tumor measurements were taken twice weekly until tumor volumes ranged between 150-250 mm^3. […] At 6h or 72h after dosing, tumors were extracted and immediately frozen in liquid nitrogen. […] Immediately after collection, the blood samples were centrifuged and the resulting plasma was transferred to sample tubes and stored at −80° C. Tumors were weighed, cut into small pieces, and lysed in Lysing Matrix A tubes (LMA) containing RIPA buffer with HALT protease/phosphatase inhibitors (Pierce), 50 mM sodium fluoride (Sigma), 2 mM activated sodium orthovanadate (Sigma), and 1 mM PMSF (MesoScale Discovery). Lysates were removed from LMA matrix and centrifuged to remove insoluble protein. The soluble tumor protein was quantified with a BCA protein assay and diluted to equivalent protein levels in tumor lysis buffer. Phosphorylated c-Met, EGFR and ERK were measured using assay plates from MesoScale Discovery (according to Manufacturer's protocol and as described above).

[5] = mouse, in vivo
Method: as §2, §3

EGFR [6] = target: T1, EGFR (Homo sapiens, UniProt P00533); experiment: Inhibition of EGFR phosphorylation in NCI-H292 cells; assay type: cell-based; conditions: FIG. 7A
Method: (§1) NCI-H292, NCI-H441, or NCI-H596 cells were plated in 96 well plates in RPMI medium containing 10% FBS. 24 hours later, medium was replaced with serum free RPMI. […] Cells were treated for 1h with the monospecific or bispecific molecules and then stimulated with EGF, HGF, or a combination of EGF and HGF for 15 minutes at 37° C., 5% CO2. Cells were lysed with MSD Lysis Buffer and cell signaling was assessed using appropriate MSD Assay plates, according to manufacturer's instructions, as described above.
Purified bispecific PEG24-maleimide conjugates were tested for their ability to inhibit EGF-stimulated phosphorylation of EGFR in the human tumor cell line NCI-H292 (American Type Culture Collection, cat. #CRL-1848) using the EGFR phospho(Tyr1173) kit from Meso Scale Discovery (Gaithersburg, Md.) and as described in Example 3.

EGFR [7] = target: T1, EGFR; experiment: Inhibition of EGFR phosphorylation in NCI-H596 cells; assay type: cell-based; conditions: FIG. 7B
Method: as §1

EGFR [8] = target: T1, EGFR; experiment: Inhibition of EGFR phosphorylation in NCI-H441 cells; assay type: cell-based; conditions: FIG. 7C
Method: as §1

[9] = day 23 after tumor inoculation, Crizotinib 50 mg/kg, Erlotinib 50 mg/kg, Cetuximab 1 mg/mouse

Molecule: C#Cc1cccc(Nc2ncnc3cc(OCCOC)c(OCCOC)cc23)c1 [Erlotinib, erlotinib]
- toxicity / body weight loss / tolerability (in words) [1]: More severe body weight loss

Molecule: C[C@@H](Oc1cc(-c2cnn(C3CCNCC3)c2)cnc1N)c1c(Cl)ccc(F)c1Cl [Crizotinib, crizotinib]
- toxicity / body weight loss / tolerability (in words) [1]: More severe body weight loss
- Tumor volume (mm^3) ([2]; day 9 after tumor inoculation, mean ± SEM, bispecific 25 mg/kg, Crizotinib 50 mg/kg, Erlotinib 50 mg/kg, Cetuximab 1 mg/mouse): 217 ± 20 mm^3
- Tumor volume (mm^3) ([2]; day 13 after tumor inoculation, mean ± SEM, bispecific 25 mg/kg, Crizotinib 50 mg/kg, Erlotinib 50 mg/kg, Cetuximab 1 mg/mouse): 547 ± 43 mm^3
- Tumor volume (mm^3) ([2]; day 16 after tumor inoculation, mean ± SEM, bispecific 25 mg/kg, Crizotinib 50 mg/kg, Erlotinib 50 mg/kg, Cetuximab 1 mg/mouse): 914 ± 92 mm^3
- Tumor volume (mm^3) ([2]; day 20 after tumor inoculation, mean ± SEM, bispecific 25 mg/kg, Crizotinib 50 mg/kg, Erlotinib 50 mg/kg, Cetuximab 1 mg/mouse): 1438 ± 239 mm^3
- T/C (%) ([2]; day 23, mean volume of treated vs control group, doses as in the Treatment column): 120%
- Tumor Size (mm^3) at day 23 ([2]; day 23, mean ± SEM, bispecific 25 mg/kg, Crizotinib 50 mg/kg, Erlotinib 50 mg/kg, combination 50 mg/kg + 50 mg/kg, Cetuximab 1 mg/mouse): 2102 ± 298 mm^3
- mean tumor size [2, 9]: 2,102 mm^3
- Tumor volume (mm^3) ([2]; day 23 after tumor inoculation, mean ± SEM, bispecific 25 mg/kg, Crizotinib 50 mg/kg, Erlotinib 50 mg/kg, Cetuximab 1 mg/mouse): 2102 ± 298 mm^3
- antitumor activity (in words) [2]: no antitumor activity

B1: ECB106: bispecific SEQ ID 65: P54AR4-83V23, (AP)5, P114AR7P94-A3v22 (protein)
chain: MLPAPKNLVVSEVTEDSARLSWDDPHAFYESFLIQYQESEKVGEAIVLTVPGSERSYDLTGLKPGTEYTVSIYGVHNVYKDTNIRGLPLSAIFTTAPAPAPAPAPLPAPKNLVVSRVTEDSARLSWTAPDAAFDSFWIRYFEFLGSGEAIVLTVPGSERSYDLTGLKPGTEYVVNILGVKGGKISPPLSAIFTT
modifications: bispecific EGFR/cMet binding molecule
- IC50 (H292 cells): 484 nM

B2: ECB107: bispecific SEQ ID 66: P54AR4-83V23, (AP)5, P114AR9P121-A6v2 (protein)
chain: MLPAPKNLVVSEVTEDSARLSWDDPHAFYESFLIQYQESEKVGEAIVLTVPGSERSYDLTGLKPGTEYTVSIYGVHNVYKDTNIRGLPLSAIFTTAPAPAPAPAPLPAPKNLVVSRVTEDSARLSWTAPDAAFDSFWIRYFEFVGSGEAIVLTVPGSERSYDLTGLKPGTEYVVNILGVKGGSISPPLSAIFTT
modifications: bispecific EGFR/cMet binding molecule
- IC50 (H292 cells): 2640 nM

B3: ECB109: bispecific SEQ ID 68: P54AR4-83V23, (AP)5, P114AR7P95-C5V2 (protein)
chain: MLPAPKNLVVSEVTEDSARLSWDDPHAFYESFLIQYQESEKVGEAIVLTVPGSERSYDLTGLKPGTEYTVSIYGVHNVYKDTNIRGLPLSAIFTTAPAPAPAPAPLPAPKNLVVSRVTEDSARLSWTAPDAAFDSFWIRYFEFLGSGEAIVLTVPGSERSYDLTGLKPGTEYVVNILSVKGGSISPPLSAIFTT
modifications: bispecific EGFR/cMet binding molecule
- IC50 (H292 cells): 574 nM

B4: ECB108: bispecific SEQ ID 67: P54AR4-83V23, (AP)5, P114AR9P122-A7v2 (protein)
chain: MLPAPKNLVVSEVTEDSARLSWDDPHAFYESFLIQYQESEKVGEAIVLTVPGSERSYDLTGLKPGTEYTVSIYGVHNVYKDTNIRGLPLSAIFTTAPAPAPAPAPLPAPKNLVVSRVTEDSARLSWTAPDAAFDSFWIRYFEFVSKGDAIVLTVPGSERSYDLTGLKPGTEYVVNILGVKGGSISPPLSAIFTT
modifications: bispecific EGFR/cMet binding molecule
- IC50 (H292 cells): 11400 nM

B5: ECB39: bispecific SEQ ID 121: P53A1R5-17V2, (AP)5, P114AR7P94-A3, linked to albumin binding domain (protein)
chain: MLPAPKNLVVSEVTEDSARLSWADPHGFYDSFLIQYQESEKVGEAIVLTVPGSERSYDLTGLKPGTEYTVSIYGVHNVYKDTNMRGLPLSAIFTTAPAPAPAPAPLPAPKNLVVSRVTEDSARLSWTAPDAAFDSFWIRYFEFLGSGEAIVLTVPGSERSYDLTGLKPGTEYVVNIMGVKGGKISPPLSAIFTTAPAPAPAPAPLAEAKVLANRELDKYGVSDYYKNLINNAKTVEGVKALLDEILAALP
modifications: Bispecific EGFR/c-Met binding molecule
- tumor growth / tumor growth inhibition (in words) [3]: showed the most efficacy
- tumor accumulation (in words) [4]: significantly more tumor accumulation at 6 hours relative to the other molecules

B6: ECB38: bispecific SEQ ID 120: P54AR4-83V2, (AP)5, P114AR7P94-A3, linked to albumin binding domain (protein)
chain: MLPAPKNLVVSEVTEDSARLSWDDPWAFYESFLIQYQESEKVGEAIVLTVPGSERSYDLTGLKPGTEYTVSIYGVHNVYKDTNMRGLPLSAIFTTAPAPAPAPAPLPAPKNLVVSRVTEDSARLSWTAPDAAFDSFWIRYFEFLGSGEAIVLTVPGSERSYDLTGLKPGTEYVVNIMGVKGGKISPPLSAIFTTAPAPAPAPAPLAEAKVLANRELDKYGVSDYYKNLINNAKTVEGVKALLDEILAALP
modifications: Bispecific EGFR/c-Met binding molecule
- tumor growth / tumor growth inhibition (in words) [3]: showed the most efficacy
- mice euthanized when BWL>20% during the treatment period ([1]; 25 mg/kg): 3 mice
- mice in which the treatment was tolerated ([1]; 25 mg/kg, 3 times/week x 3 weeks): 7 out of 10
- toxicity / body weight loss / tolerability (in words) [5]: Slight toxicity
- mean tumor size [2, 9]: 23 mm^3
- antitumor activity (in words) [2]: complete tumor regression (CR) in all mice; also recorded: complete response

B7: ECB5: bispecific SEQ ID 54: P53A1R5-17V2, (GGGGS)4, P114AR7P94-A3 (protein)
chain: MLPAPKNLVVSEVTEDSARLSWADPHGFYDSFLIQYQESEKVGEAIVLTVPGSERSYDLTGLKPGTEYTVSIYGVHNVYKDTNMRGLPLSAIFTTGGGGSGGGGSGGGGSGGGGSMLPAPKNLVVSRVTEDSARLSWTAPDAAFDSFWIRYFEFLGSGEAIVLTVPGSERSYDLTGLKPGTEYVVNIMGVKGGKISPPLSAIFTT
modifications: bispecific EGFR/cMet binding molecule
- inhibition of phosphorylation of EGFR, bispecific vs monospecific (in words) (EGFR [6]): comparable
- inhibition of phosphorylation of EGFR, bispecific vs monospecific (in words) (EGFR [7]): comparable
- decrease of IC50 for inhibition of EGFR phosphorylation compared to the monospecific EGFR-binding FN3 domain (EGFR [8]): 30 fold
